The target in this assay is MCR2(OVA). Description: cell-based or functional assay.

OT-II TCR registered an NFAT-activation triggered by a T-cell population holding 1% peptide-specific CD4+ T-cells (% of the maximal NFAT-activation) of 50.

(Values after patent US20190345485A1.)
